Tests used:
[1] = target: PcrV on Pseudomonas aeruginosa strain PA103 (type III secretion system) (Pseudomonas aeruginosa strain PA103); test: cell-based or functional assay
[2] = target: PcrV antigen of Pseudomonas aeruginosa (recombinant PcrV) (Pseudomonas aeruginosa); test: biolayer interferometry, ForteBio Octet

## Mab166 Fab
[1]
  IC50 (nM), TTSS-dependent cytotoxicity assay (PA103 killing of P3-X63-Ag8 myeloma cells, propidium iodide flow cytometry): 53 nM
[2]
  Kd: 1.4 nM
